The target of experiment [1] is gp120-ferritin (gp120-FR) nanoparticle. Put plainly: ELISA. (In general: In an ELISA, binding on a coated surface is turned into a signal by an enzyme label.)
Experiment [2] deals with clade-C (ZM109) V1V2-ferritin nanoparticle (V1V2-FR) (HIV-1 ZM109 (clade C) | not stated) (UniProt Q9ZLI1). Put plainly: ELISA.

By EC50 is commonly meant the concentration giving half of the maximal effect. Read a low EC50 as a more potent agent.

In the case of PGT121, the concentration for a half-maximal effect (EC50) is 0.077 µg/mL in experiment [1] and 0.87 µg/mL in experiment [2].

These data come from publication PMC5573810.
